Patent US20260055201A1 (SHENGHE CHINA BIOPHARMACEUTICAL, published 2026)

B1: anti-CCR8 control antibody (variable region SEQ ID NO: 9 and SEQ ID NO: 13, constant region of human IgG1 SEQ ID NO: 54 and SEQ ID NO: 55) (antibody, V domains shown)
VH: EVQLVESGGGLVQPGGSLRLSCAASGFTFNTNAMNWVRQAPGKGLEWVGRIRTKSNNYATYYAESVRDRFTISRDDSKNSLYLQMNSLKTEDTAMYYCVRGGYGIRGEYTMDYWGQGTLVTVSS
VL: DIVMTQSPPTLSLSPGERATLSCRSSKSLLHSNGNTYLYWFQQKPGQSPQLLIYRMSNLASGIPDRFSGSGSGTDFTLTISRLEPEDFAVYYCMQHLEYPFTFGQGTKLEIKR
B2: TR-H (bispecific antibody, human IgG1, kappa)
light: EVQLVESGGGLVQPGGSLRLSCAASGSRLDYYAVAWFRQAPGKEREEVSCITYSGGSTNYAESVKGRFTISRDNSKNTLYLQMNSLRAEDTAVYYCTTEPYGSSCPLSGYDTWGQGTLVTVSSGGGGSGGGGSGGGGSDIVMTQSPPTLSLSPGERATLSCRSSKSLLHSNGNTYLYWFQQKPGQSPQLLIYRMSNLASGIPDRFSGSGSGTDFTLTISRLEPEDFAVYYCMQHLEYPFTFGQGTKLEIKRTVAAPSVFIFPPSDEQLKSGTASVVCLLNNFYPREAKVQWKVDNALQSGNSQESVTEQDSKDSTYSLSSTLTLSKADYEKHKVYACEVTHQGLSSPVTKSFNRGEC
heavy: not shown
notes: also called antibody TR-H
B3: TR-G (bispecific antibody, human IgG1, kappa)
light: DIVMTQSPPTLSLSPGERATLSCRSSKSLLHSNGNTYLYWFQQKPGQSPQLLIYRMSNLASGIPDRFSGSGSGTDFTLTISRLEPEDFAVYYCMQHLEYPFTFGQGTKLEIKRTVAAPSVFIFPPSDEQLKSGTASVVCLLNNFYPREAKVQWKVDNALQSGNSQESVTEQDSKDSTYSLSSTLTLSKADYEKHKVYACEVTHQGLSSPVTKSFNRGECGGGGSGGGGSEVQLVESGGGLVQPGGSLRLSCAASGSRLDYYAVAWFRQAPGKEREEVSCITYSGGSTNYAESVKGRFTISRDNSKNTLYLQMNSLRAEDTAVYYCTTEPYGSSCPLSGYDTWGQGTLVTVSS
heavy: not shown
notes: also called antibody TR-G
B4: TR-F (bispecific antibody, human IgG1, kappa)
light: EVQLVQSGAEVKKPGATVKISCKVSGYSITDYLLHWVQQAPGKCLEWMGWIDPEDAKTKYGQKFQSRVTITADTSTDTAYMELSSLRSEDTAVYYCAANSGTGTMDAWGQGTLVTVSSGGGGSGGGGSGGGGSDIVMTQSPATLSVSPGERATLSCKASQNVGSNVDWYQQKPGQSPRVLIYKASIRYTGIPARFSGSGSGTEFTLTISILQSEDFAVYFCMQSKSYPITFGCGTKLEIKGGGGSGGGGSGGGGSDIVMTQSPPTLSLSPGERATLSCRSSKSLLHSNGNTYLYWFQQKPGQSPQLLIYRMSNLASGIPDRFSGSGSGTDFTLTISRLEPEDFAVYYCMQHLEYPFTFGQGTKLEIKRTVAAPSVFIFPPSDEQLKSGTASVVCLLNNFYPREAKVQWKVDNALQSGNSQESVTEQDSKDSTYSLSSTLTLSKADYEKHKVYACEVTHQGLSSPVTKSFNRGEC
heavy: not shown
notes: also called antibody TR-F
B5: TR-A (bispecific antibody, human IgG1, kappa)
light: DIVMTQSPPTLSLSPGERATLSCRSSKSLLHSNGNTYLYWFQQKPGQSPQLLIYRMSNLASGIPDRFSGSGSGTDFTLTISRLEPEDFAVYYCMQHLEYPFTFGQGTKLEIKRTVAAPSVFIFPPSDEQLKSGTASVVCLLNNFYPREAKVQWKVDNALQSGNSQESVTEQDSKDSTYSLSSTLTLSKADYEKHKVYACEVTHQGLSSPVTKSFNRGEC
heavy: not shown
notes: also called antibody TR-A
B6: TR-D (bispecific antibody, human IgG1, kappa)
light: B5 light
heavy: not shown
notes: also called antibody TR-D
B7: TR-C (bispecific antibody, human IgG1, kappa)
light: B5 light
heavy: not shown
notes: also called antibody TR-C
B8: TR-B (bispecific antibody, human IgG1, kappa)
light: B5 light
heavy: not shown
notes: also called antibody TR-B
B9: TR-E (bispecific antibody, human IgG1, kappa)
light: DIVMTQSPPTLSLSPGERATLSCRSSKSLLHSNGNTYLYWFQQKPGQSPQLLIYRMSNLASGIPDRFSGSGSGTDFTLTISRLEPEDFAVYYCMQHLEYPFTFGQGTKLEIKRTVAAPSVFIFPPSDEQLKSGTASVVCLLNNFYPREAKVQWKVDNALQSGNSQESVTEQDSKDSTYSLSSTLTLSKADYEKHKVYACEVTHQGLSSPVTKSFNRGECGGGGSGGGGSEVQLVQSGAEVKKPGATVKISCKVSGYSITDYLLHWVQQAPGKCLEWMGWIDPEDAKTKYGQKFQSRVTITADTSTDTAYMELSSLRSEDTAVYYCAANSGTGTMDAWGQGTLVTVSSGGGGSGGGGSGGGGSDIVMTQSPATLSVSPGERATLSCKASQNVGSNVDWYQQKPGQSPRVLIYKASIRYTGIPARFSGSGSGTEFTLTISILQSEDFAVYFCMQSKSYPITFGCGTKLEIK
heavy: not shown
notes: also called antibody TR-E
B10: anti-TNFR2 control antibody (SEQ ID NO: 52 and SEQ ID NO: 53, constant region of human IgG1 SEQ ID NO: 54 and SEQ ID NO: 55) (antibody, V domains shown)
VH: EVQLVQSGAEVKKPGATVKISCKVSGYSITDYLLHWVQQAPGKGLEWMGWIDPEDAKTKYGQKFQSRVTITADTSTDTAYMELSSLRSEDTAVYYCAANSGTGTMDAWGQGTLVTVSS
VL: DIVMTQSPATLSVSPGERATLSCKASQNVGSNVDWYQQKPGQSPRVLIYKASIRYTGIPARFSGSGSGTEFTLTISILQSEDFAVYFCMQSKSYPITFGQGTKLEIKR
notes: also called positive control 1
B11: Positive control (anti-TNFR2; antibody sequence variable region consists of SEQ ID NO: 25) (VHH, not shown: a dimerising Fc or GST)
VHH: EVQLVESGGGLVQPGGSLRLSCAASGSRLDYYAVAWFRQAPGKEREEVSCITYSGGSTNYAESVKGRFTISRDNSKNTLYLQMNSLRAEDTAVYYCTTEPYGSSCPLSGYDTWGQGTLVTVSS
notes: also called positive control 2

target: T1, human CCR8 on CCR8-CHO-K1 cells (human, UniProt P51685 1-355); assay: flow cytometry on CCR8-CHO-K1 cells, APC anti-human IgG Fc secondary antibody, Average-APC
T1 construct: CHO cells overexpressing human CCR8 by lentiviral transduction
Method: (§1) The purified antibodies were diluted to 120 nM with FACS buffer, using this as the starting concentration, and then diluted by 5-fold gradient (6 gradients in total). […] The cells were incubated at 4° C. for 60 min, then washed twice with excess FACS buffer. Resuspended the cells in 100 μL FACS Buffer and Added Fluorescent Secondary antibody APC (Biolegend, Cat: 109306) against human IgG FC to the sample. It was incubated for 30 min and washed twice with excess FACS buffer. Resuspended the cells in flow buffer and then detected and analyzed using a flow cytometer.

| Binder | EC50 (read off the curve) [nM] | binding result |
| --- | --- | --- |
| B1 | ~0.3 |  |
| B2 |  | binds |
| B3 | ~0.9 |  |
| B4 |  | binds |
| B5 |  | binds |
| B6 |  | binds |
| B7 | ~1 |  |
| B8 |  | binds |
| B9 | ~1 |  |

target: T2, human TNFR2 on TNFR2-CHO-K1 cells (human, UniProt P20333 23-461); assay: flow cytometry on TNFR2-CHO-K1 cells, APC anti-human IgG Fc secondary antibody, Average-APC
T2 construct: CHO cells overexpressing human TNFR2 by lentiviral transduction
T2 sequence: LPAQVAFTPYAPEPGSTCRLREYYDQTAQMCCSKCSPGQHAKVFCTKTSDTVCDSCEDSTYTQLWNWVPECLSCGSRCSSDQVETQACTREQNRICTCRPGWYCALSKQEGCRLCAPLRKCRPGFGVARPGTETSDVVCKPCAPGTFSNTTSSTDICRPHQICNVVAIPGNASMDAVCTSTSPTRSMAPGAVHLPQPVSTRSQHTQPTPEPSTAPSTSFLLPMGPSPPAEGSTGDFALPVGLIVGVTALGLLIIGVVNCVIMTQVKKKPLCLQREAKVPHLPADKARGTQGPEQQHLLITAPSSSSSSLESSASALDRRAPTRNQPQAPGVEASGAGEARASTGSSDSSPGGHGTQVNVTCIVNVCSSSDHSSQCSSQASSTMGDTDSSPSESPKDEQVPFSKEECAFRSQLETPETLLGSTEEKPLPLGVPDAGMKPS
Method: as §1, with “6-fold” for “5-fold”, “(7” for “(6”, “buffer” for “Buffer”, “added fluorescent secondary” for “Added Fluorescent Secondary”

| Binder | EC50 (read off the curve) [nM] |
| --- | --- |
| B3 | ~1 |
| B4 | ~0.5 |
| B6 | ~0.1 |
| B10 | ~0.3 |

target: T3, Human TNFR2 His (manufacturer: SINO, CAT: 10417-H08H) (human, UniProt P20333 23-257); assay: bridging flow cytometry: antibody on CCR8-CHO-K1 cells captures human TNFR2 His, FITC anti-His (PBS background 15212)
T3 construct: Bought protein; also called human TNFR2 protein; TNFR2 protein; not shown: His tag
T3 sequence (looked up): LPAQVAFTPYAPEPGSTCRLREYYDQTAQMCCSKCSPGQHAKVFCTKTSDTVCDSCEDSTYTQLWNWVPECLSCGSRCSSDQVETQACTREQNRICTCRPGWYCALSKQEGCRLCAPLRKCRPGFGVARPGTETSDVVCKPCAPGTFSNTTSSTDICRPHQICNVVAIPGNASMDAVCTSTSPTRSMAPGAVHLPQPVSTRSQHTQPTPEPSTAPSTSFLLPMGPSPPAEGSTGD
Method: The cells after adding the sample were incubated at 4° C. for 60 min, and then washed twice with excess FACS buffer. Resuspended the cells in 100 μL FACS buffer and added FITC anti His tag (Abcam, Cat: ab1206) fluorescent secondary antibody carrying FITC to the sample. It was incubated for 30 min and washed twice with excess FACS buffer. Resuspended the cells in flow buffer and then detected and analyzed using a flow cytometer.

| Binder | Average FITC-A |
| --- | --- |
| B2 | 34200 |
| B3 | 33700 |
| B4 | 27600 |
| B5 | 40000 |
| B6 | 30300 |
| B7 | 89500 |
| B8 | 29000 |
| B9 | 61900 |

target: T4, Human TNFR2 mFc (manufacturer: Kaixia, CAT: TN-HM3R2) (human, UniProt P20333 23-257); assay: blocking ELISA: human TNFR2 mFc coated, antibody titrated together with human TNF alpha His (blocked ligand), anti-His detection, OD450
T4 construct: treated as one molecule; also called Human TNFR2 mFC (KaKa, CAT: TNF-HM3R2); human TNFR2 mFC protein; not shown: mFc part
T4 sequence (looked up): T3 sequence (looked up)
Method: (§2) The coating solution was poured off. Each well was washed with 1×PBST at 300 μL, washed 4 times with a plate washer, and patted dry on a flat paper. It was blocked with 3% skim milk powder at 300 μL/well, and incubated at 37° C. for 1 h. The blocking solution was poured off, washed 4 times with a plate washer, and patted dry on a flat paper. Negative control and positive control were set up. […] The positive control and antibody were diluted diluted to 100 nM with 3% skim milk powder as the starting concentration, and then diluted by 3-fold gradient (11 gradients in total), and a blank well was set up and only the diluent was added. […] The liquid in the well was discarded, washed 4 times with a plate washer, and patted dry on a flat paper. The anti his antibody (Abcam, Cat: ab1187) was diluted with 3% skim milk powder at 1:5000, 100 μL was added to each well, and incubated at 37° C. for 1 h. It was washed 6 times with a plate washer, and patted dry on a flat paper. TMB color developing solution was added at 100 μL/well, and wrapped with aluminum foil. Color development was performed at 37° C. in the dark for 8 min. Termination solution 1M HCl was added to terminate the color development reaction at 100 μL/well. Readings were taken at 450 nm on an ELISA reader.

| Binder | IC50 (read off the curve) [nM] |
| --- | --- |
| B11 | ~2 |
| B6 | ~2 |

target: T4, Human TNFR2 mFc (manufacturer: Kaixia, …); assay: as above; remark: another data set of the same source
Method: as §2

| Binder | IC50 (read off the curve) [nM] |
| --- | --- |
| B2 | ~3 |
| B11 | ~2 |
